Assay results: patent US20210340196A1 (UNIVERSIDAD DE ZARAGOZA, published 2021)

Target: T1, carcinoembryonic antigen (CEA), purified antigen (UniProt P06731 35-685)
T1 construct: Purified CEA coated on ELISA wells; also called CEA antigen
T1 sequence (looked up): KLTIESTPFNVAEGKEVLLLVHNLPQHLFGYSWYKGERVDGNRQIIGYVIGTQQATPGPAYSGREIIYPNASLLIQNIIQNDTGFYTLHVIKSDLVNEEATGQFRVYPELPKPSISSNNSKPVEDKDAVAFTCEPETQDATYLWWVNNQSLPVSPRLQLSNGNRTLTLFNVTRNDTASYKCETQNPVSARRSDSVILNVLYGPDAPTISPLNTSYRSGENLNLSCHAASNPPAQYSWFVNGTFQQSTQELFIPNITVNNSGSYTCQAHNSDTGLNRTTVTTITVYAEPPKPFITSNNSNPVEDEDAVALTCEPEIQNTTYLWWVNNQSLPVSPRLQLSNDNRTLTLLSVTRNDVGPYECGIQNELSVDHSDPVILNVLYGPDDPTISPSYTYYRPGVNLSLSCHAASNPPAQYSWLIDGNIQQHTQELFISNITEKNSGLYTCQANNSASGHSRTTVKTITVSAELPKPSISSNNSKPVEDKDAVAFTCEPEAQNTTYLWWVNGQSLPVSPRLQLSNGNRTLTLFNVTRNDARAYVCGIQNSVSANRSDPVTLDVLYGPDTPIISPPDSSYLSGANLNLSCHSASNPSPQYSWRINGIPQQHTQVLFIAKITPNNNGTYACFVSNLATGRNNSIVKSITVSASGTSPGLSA
Test: ELISA, 200 ng CEA coated per well, 500 ng scFv MFE23 as positive control, anti-His tag antibody + HRP anti-mouse IgG, OPD read at 492 nm
Description: FIG. 7. ELISA performed with 200 ng of CEA per well (left overnight at 4° C.), PBS (negative control), 500 ng of recombinant scFv MFE23 (positive control), and the P. pastoris supernatant transformed with pPICZαC-Chimera were then added after inducing expression with methanol. To develop the binding of scFvs to the CEA antigen, an anti-histidine tag antibody and a peroxidase-conjugated goat anti-mouse IgG secondary antibody were used. The peroxidase substrate was OPD, producing a yellow-orange product that can be detected at 492 nm.
An ELISA was performed using 200 ng of CEA per well, which was incubated overnight at 4° C., PBS (negative control), 500 ng of the recombinant scFv MFE23 (positive control), and the P. pastoris supernatant transformed with pPICZαC-Chimera after inducing expression with methanol were then added. To develop the binding of scFvs to the CEA antigen, an anti-histidine tag antibody and a peroxidase-conjugated goat anti-mouse IgG secondary antibody were used. The peroxidase substrate was OPD, producing a yellow-orange product that can be detected at 492 nm.

B1: recombinant scFv MFE23 (scFv)
scFv: QVKLQQSGAELVRSGTSVKLSCTASGFNIKDSYMHWLRQGPEQGLEWIGWIDPENGDTEYAPKFQGKATFTTDTSSNTAYLQLSSLTSEDTAVYYCNEGTPTGPYYFDYWGQGTTVTVSSGGGGSGGGGSGGGGSENVLTQSPAIMSASPGEKVTITCSASSSVSYMHWFQQKPGTSPKLWIYSTSNLASGVPARFSGSGSGTSYSLTISRMEAEDAATYYCQQRSSYPLTFGAGTKLELKR
notes: Positive control in the ELISA, 500 ng; also called anti-CEA scFv MFE23
binding result: binds
